Measurements taken from the supplement of paper PMC10724198.
± gives the standard deviation of the averaged measurements.

Key:
Saccharomyces cerevisiae [1] = experiment: protein stability index of tFT-peptide fusion (C-terminal peptide) (PSI (0-1 scale)); higher = more stable (slower turnover); settings: genetic background: wild type; temperature: 30 C
Saccharomyces cerevisiae [2] = experiment: as above
Method: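 MPS profiling in S. cerevisiae of the tFT-X12 degron library: putative degron peptides plus stable controls, 12 aa, fused to the C-terminus of a sfGFP-mCherry timer. Cells are FACS-sorted into 8 mCherry/sfGFP bins and deep-sequenced. PSI runs from 0 (unstable) to 1 (stable). Backgrounds are wild type, das1Δ and doa10Δ at 30 °C, and wild type, das1Δ, cdc34-1 and cdc53-1 at 37 °C; 2-3 technical replicates each.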

[3] = genetic background: cdc34-1, temperature: 37 C
[4] = genetic background: cdc53-1, temperature: 37 C
[5] = genetic background: das1 deletion, temperature: 30 C
[6] = genetic background: das1 deletion, temperature: 37 C
[7] = genetic background: doa10 deletion, temperature: 30 C
[8] = genetic background: wild type, temperature: 30 C
[9] = genetic background: wild type, temperature: 37 C
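Also: PSI is a weighted mean of sequencing reads over stability bins, variants kept only with over 10 reads, mCherry proximal and sfGFP distal, peptide attached via GGGS linker.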

| Sequence | protein stability index (Saccharomyces cerevisiae [1]) | protein stability index (Saccharomyces cerevisiae [2]; [3]) | protein stability index (Saccharomyces cerevisiae [2]; [4]) | protein stability index (Saccharomyces cerevisiae [2]; [5]) | protein stability index (Saccharomyces cerevisiae [2]; [6]) | protein stability index (Saccharomyces cerevisiae [2]; [7]) | protein stability index (Saccharomyces cerevisiae [2]; [8]) | protein stability index (Saccharomyces cerevisiae [2]; [9]) |
| --- | --- | --- | --- | --- | --- | --- | --- | --- |
| WVVWVLVGGFGG | 0.384 ± 0.032 | 0.299 ± 0.022 | 0.42448 ± 0.00021 | 0.277 ± 0.036 | 0.4813 ± 0.0047 | 0.232 ± 0.0043 | 0.266 ± 0.021 | 0.449 ± 0.03 |
| WVVWWFACVFGV | 0.309 ± 0.049 | 0.346 ± 0.009 | 0.404 ± 0.0089 | 0.286 ± 0.033 | 0.429 ± 0.019 | 0.264 ± 0.008 | 0.28 ± 0.019 | 0.413 ± 0.0073 |
| WVYVFVSLFFVV | 0.263 ± 0.0029 | 0.185 ± 0.0071 | 0.2552 ± 0.0011 | 0.204 ± 0.029 | 0.347 ± 0.013 | 0.196 ± 0.017 | 0.17 ± 0.018 | 0.289 ± 0.0062 |
| WYLLCESCLLCL | 0.494 ± 0.0075 | 0.534 ± 0.021 | 0.536 ± 0.0079 | 0.406 ± 0.025 | 0.562 ± 0.011 | 0.39 ± 0.013 | 0.408 ± 0.025 | 0.558 ± 0.0046 |
| WYVRVYVLSVES | 0.237 ± 0.019 | 0.136 ± 0.021 | 0.176 ± 0.028 | 0.186 ± 0.029 | 0.3115 ± 0.0015 | 0.137 ± 0.0079 | 0.168 ± 0.018 | 0.264 ± 0.022 |
| YCAAVCFWGLYC | 0.242 ± 0.024 | 0.522 ± 0.015 | 0.654 ± 0.023 | 0.541 ± 0.029 | 0.668 ± 0.012 | 0.13 ± 0.0034 | 0.154 ± 0.013 | 0.233 ± 0.011 |
| YDVQIEFCVVEV | 0.442 ± 0.0093 | 0.601 ± 0.035 | 0.57 ± 0.019 | 0.365 ± 0.03 | 0.5694 ± 0.0029 | 0.347 ± 0.004 | 0.379 ± 0.017 | 0.547 ± 0.019 |
| YFFFFLHFNFAF | 0.2803 ± 0.002 | 0.145 ± 0.062 | 0.169 ± 0.036 | 0.246 ± 0.023 | 0.35 ± 0.0091 | 0.313 ± 0.034 | 0.225 ± 0.059 | 0.267 ± 0.021 |
| YFFFYFFLLFHL | 0.375 ± 0.071 | 0.265 ± 0.051 | 0.272 ± 0.036 | 0.332 ± 0.034 | 0.45 ± 0.045 | 0.416 ± 0.015 | 0.3115 ± 0.0019 | 0.429 ± 0.037 |
| YFWWLWMSFWVG | 0.4702 ± 0.0044 | 0.4935 ± 0.0028 | 0.53 ± 0.011 | 0.43 ± 0.023 | 0.59 ± 0.066 | 0.419 ± 0.022 | 0.403 ± 0.015 | 0.539 ± 0.013 |
| YGWGFLFILTLM | 0.182 ± 0.01 | 0.15 ± 0.032 | 0.153 ± 0.03 | 0.262 ± 0.038 | 0.317 ± 0.0042 | 0.14 ± 0.024 | 0.101 ± 0.018 | 0.151 ± 0.016 |
| YHGVYLARVLQA | 0.45 ± 0.041 | 0.639 ± 0.0084 | 0.677 ± 0.021 | 0.604 ± 0.011 | 0.69 ± 0.015 | 0.243 ± 0.011 | 0.286 ± 0.024 | 0.501 ± 0.029 |
| YIFLLRFFFFFS | 0.358 ± 0.028 | 0.367 ± 0.014 | 0.435 ± 0.0084 | 0.333 ± 0.042 | 0.515 ± 0.03 | 0.299 ± 0.011 | 0.304 ± 0.044 | 0.435 ± 0.022 |
| YILIKEVLYAVC | 0.274 ± 0.018 | 0.169 ± 0.0061 | 0.171 ± 0.0086 | 0.182 ± 0.028 | 0.281 ± 0.0066 | 0.128 ± 0.023 | 0.17 ± 0.024 | 0.236 ± 0.0088 |
| YIRINNIYWKKS | 0.399 ± 0.029 | 0.58 ± 0.016 | 0.755 ± 0.024 | 0.669 ± 0.023 | 0.722 ± 0.012 | 0.182 ± 0.0071 | 0.227 ± 0.034 | 0.536 ± 0.032 |
| YLFPHVRPKFPG | 0.488 ± 0.091 | 0.693 ± 0.042 | 0.747 ± 0.014 | 0.658 ± 0.019 | 0.7316 ± 0.0071 | 0.667 ± 0.0085 | 0.664 ± 0.016 | 0.721 ± 0.015 |
| YLVSFVAFLRLF | 0.143 ± 0.19 | 0.336 ± 0.02 | 0.446 ± 0.013 | 0.422 ± 0.025 | 0.5418 ± 0.0026 | 0.0967 ± 0.012 | 0.0919 ± 0.018 | 0.1 ± 0.019 |
| YMNLYKNVISVT | 0.408 ± 0.057 | 0.473 ± 0.044 | 0.47 ± 0.054 | 0.378 ± 0.024 | 0.522 ± 0.0072 | 0.316 ± 0.021 | 0.353 ± 0.024 | 0.457 ± 0.0095 |
| YMVESVWVLLGT | 0.49 ± 0.016 | 0.573 ± 0.029 | 0.5755 ± 0.0052 | 0.431 ± 0.032 | 0.582 ± 0.0083 | 0.381 ± 0.014 | 0.421 ± 0.042 | 0.564 ± 0.0079 |
| YPFIPLIVCGFF | 0.404 ± 0.02 | 0.401 ± 0.028 | 0.41 ± 0.0085 | 0.344 ± 0.024 | 0.4747 ± 0.00094 | 0.395 ± 0.019 | 0.338 ± 0.018 | 0.448 ± 0.01 |
| YPVGAAFIRARA | 0.491 ± 0.011 | 0.45 ± 0.016 | 0.501 ± 0.021 | 0.361 ± 0.036 | 0.5378 ± 0.0026 | 0.326 ± 0.0087 | 0.377 ± 0.026 | 0.5174 ± 0.0047 |
| YQHSRSGRNKII | 0.235 ± 0.012 | 0.591 ± 0.12 | 0.724 ± 0.033 | 0.652 ± 0.028 | 0.716 ± 0.021 | 0.109 ± 0.0063 | 0.117 ± 0.034 | 0.122 ± 0.035 |
| YSRFALRPQLLV | 0.285 ± 0.011 | 0.553 ± 0.051 | 0.634 ± 0.013 | 0.512 ± 0.025 | 0.62 ± 0.029 | 0.172 ± 0.0042 | 0.184 ± 0.024 | 0.327 ± 0.0056 |
| YSVNSLFCKVFG | 0.417 ± 0.032 | 0.469 ± 0.012 | 0.4777 ± 0.00052 | 0.348 ± 0.031 | 0.541 ± 0.0043 | 0.3135 ± 0.0031 | 0.361 ± 0.022 | 0.5054 ± 0.002 |
| YTCFLFLLRCMT | 0.292 ± 0.003 | 0.303 ± 0.048 | 0.3521 ± 0.00065 | 0.261 ± 0.044 | 0.415 ± 0.0047 | 0.1757 ± 0.00026 | 0.198 ± 0.024 | 0.294 ± 0.002 |
| YVDSGLTLIHLA | 0.297 ± 0.021 | 0.606 ± 0.0079 | 0.723 ± 0.036 | 0.662 ± 0.018 | 0.72 ± 0.013 | 0.17091 ± 8.6e-05 | 0.181 ± 0.023 | 0.334 ± 0.011 |
| YVQTKKTRYVLV | 0.454 ± 0.055 | 0.483 ± 0.027 | 0.506 ± 0.027 | 0.383 ± 0.025 | 0.543 ± 0.011 | 0.32 ± 0.0047 | 0.343 ± 0.018 | 0.5038 ± 0.0023 |
| YVSIWSPILWLA | 0.117 ± 0.024 | 0.1694 ± 0.0014 | 0.262 ± 0.012 | 0.293 ± 0.028 | 0.453 ± 0.0083 | 0.0697 ± 0.007 | 0.0628 ± 0.017 | 0.0657 ± 0.016 |
| YYFCMYFKVTLC | 0.0781 ± 0.03 | 0.0445 ± 0.006 | 0.15 ± 0.064 | 0.15 ± 0.028 | 0.285 ± 0.0044 | 0.0456 ± 0.019 | 0.043 ± 0.0087 | 0.0707 ± 0.042 |
| YYFFLTFLCYVF | 0.207 ± 0.018 | 0.153 ± 0.024 | 0.216 ± 0.039 | 0.154 ± 0.023 | 0.255 ± 0.01 | 0.148 ± 0.019 | 0.112 ± 0.027 | 0.221 ± 0.011 |
